From paper doi:10.1101/236612 (bioRxiv, 2017)

Tests used:
Assay in all cases: co-IP
GFP-tagged TOMM20 = biological target: T1, GFP-tagged TOMM20 (UniProt Q15388 1-145)
T1 sequence: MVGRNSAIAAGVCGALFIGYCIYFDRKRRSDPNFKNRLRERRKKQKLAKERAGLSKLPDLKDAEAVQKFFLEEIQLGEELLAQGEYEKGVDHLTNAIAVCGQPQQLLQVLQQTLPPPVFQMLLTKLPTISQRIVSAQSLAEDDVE

GFP-tagged TOMM70 = biological target: T2, GFP-tagged TOMM70 (UniProt O94826 1-608)
T2 sequence: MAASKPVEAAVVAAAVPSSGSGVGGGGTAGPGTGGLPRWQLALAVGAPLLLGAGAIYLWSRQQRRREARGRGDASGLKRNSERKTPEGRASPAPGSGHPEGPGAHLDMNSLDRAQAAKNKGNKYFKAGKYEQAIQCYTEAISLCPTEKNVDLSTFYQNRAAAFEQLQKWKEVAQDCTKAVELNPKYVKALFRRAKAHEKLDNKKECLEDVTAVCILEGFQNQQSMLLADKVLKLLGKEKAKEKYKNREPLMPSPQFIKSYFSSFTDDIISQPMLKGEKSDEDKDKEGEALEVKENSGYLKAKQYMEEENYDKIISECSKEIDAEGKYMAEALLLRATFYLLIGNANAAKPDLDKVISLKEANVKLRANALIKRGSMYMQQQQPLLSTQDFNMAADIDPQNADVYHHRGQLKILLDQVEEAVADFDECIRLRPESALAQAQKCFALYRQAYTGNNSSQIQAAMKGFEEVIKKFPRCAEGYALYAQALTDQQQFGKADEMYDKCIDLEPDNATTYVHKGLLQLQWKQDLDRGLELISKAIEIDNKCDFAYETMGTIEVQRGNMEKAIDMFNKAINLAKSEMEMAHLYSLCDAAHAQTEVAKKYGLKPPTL

[1] = biological target: T3, GFP-tagged Prohibitin (PHB) (UniProt P35232 1-272)
T3 sequence: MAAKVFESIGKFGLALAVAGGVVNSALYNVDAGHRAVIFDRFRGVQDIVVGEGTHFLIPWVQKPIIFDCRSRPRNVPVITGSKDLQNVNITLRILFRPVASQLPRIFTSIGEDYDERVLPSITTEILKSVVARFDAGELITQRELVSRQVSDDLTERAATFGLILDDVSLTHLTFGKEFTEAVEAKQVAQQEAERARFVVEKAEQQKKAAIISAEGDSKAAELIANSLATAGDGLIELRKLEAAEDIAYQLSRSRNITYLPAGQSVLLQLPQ

Measured: fold less AURKA in the pulldown than in pulldowns of TPX2

B1: endogenous AURKA (Aurora A kinase) (enzyme)
chain: MDRSKENCISGPVKATAPVGGPKRVLVTQQFPCQNPLPVNSGQAQRVLCPSNSSQRIPLQAQKLVSSHKPVQNQKQKQLQATSVPHPVSRPLNNTQKSKQPLPSAPENNPEEELASKQKNEESKKRQWALEDFEIGRPLGKGKFGNVYLAREKQSKFILALKVLFKAQLEKAGVEHQLRREVEIQSHLRHPNILRLYGYFHDATRVYLILEYAPLGTVYRELQKLSKFDEQRTATYITELANALSYCHSKRVIHRDIKPENLLLGSAGELKIADFGWSVHAPSSRRTTLCGTLDYLPPEMIEGRMHDEKVDLWSLGVLCYEFLVGKPPFEANTYQETYKRISRVEFTFPDFVTEGARDLISRLLKHNPSQRPMLREVLEHPWITANSSKPSNCQNKESASKQS
≥ 10 fold: all assays above
